Results from article PMC4163024 (Structure (London, England : 1993), 2014).
Numbering of substitutions follows the chain as printed. Values belong to the binder of their own block, whether it stands above or below them.

What was measured:
recombinant DcR3-Ig = biological target: T1, recombinant DcR3-Ig (human, UniProt O95407 30-300); assay: SPR
T1 sequence (looked up): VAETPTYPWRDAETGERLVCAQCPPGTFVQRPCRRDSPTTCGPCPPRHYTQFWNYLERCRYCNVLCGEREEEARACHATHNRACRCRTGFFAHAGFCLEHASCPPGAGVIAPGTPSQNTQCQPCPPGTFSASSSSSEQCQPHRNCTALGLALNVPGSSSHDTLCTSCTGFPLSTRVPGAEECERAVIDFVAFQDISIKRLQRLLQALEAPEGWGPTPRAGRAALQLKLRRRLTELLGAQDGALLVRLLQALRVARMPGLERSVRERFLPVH

recombinant LTβR-Ig = recombinant LTβR-Ig (UniProt P36941 31-227); assay: SPR
crystal structure = biological target: the molecule itself; assay: crystal structure

Chain of recombinant LTβR-Ig (P36941 31-227): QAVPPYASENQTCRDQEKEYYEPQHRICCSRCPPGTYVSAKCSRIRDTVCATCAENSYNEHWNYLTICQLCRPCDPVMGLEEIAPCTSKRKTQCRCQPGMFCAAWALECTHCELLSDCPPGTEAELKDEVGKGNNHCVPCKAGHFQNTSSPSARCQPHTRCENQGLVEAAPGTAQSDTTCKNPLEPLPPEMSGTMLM

Kd (recombinant DcR3-Ig): 16.7 ± 0.3 nM
Kd (recombinant LTβR-Ig): 11.2 ± 0.6 nM
B1: Soluble LIGHT (residues L83-V240), wild type (ligand, human, UniProt O43557 83-240, looked up)
chain: LIQERRSHEVNPAAHLTGANSSLTGSGGPLLWETQLGLAFLRGLSYHDGALVVTKAGYYYIYSKVQLGGVGCPLGLASTITHGLYKRTPRYPEELELLVSQQSPCGRATSSSRVWWDSSFLGGVVHLEAGEKVVVRVLDERLVRLRDGTRSYFGAFMV
stoichiometry N (crystal structure): 3

Kd (recombinant DcR3-Ig): 153 ± 54 nM
Kd (recombinant LTβR-Ig): 17.2 ± 14 nM
B2: LIGHT mutant 2 (EF loop 195-198 replaced by the TL1A loop) (ligand, human)
chain: B1 chain with R113S, V114N, W116F

Kd (recombinant DcR3-Ig): 36 ± 1.8 nM
Kd (recombinant LTβR-Ig): 21 ± 3.3 nM
B3: LIGHT mutant 1 (GH loop 226-231 replaced by the TL1A loop) (ligand, human)
chain: B1 chain with R144D, L145Y, R146T, D147K, G148E, T149D
